Assay results taken from patent US20090325867A1, “RECEPTOR-SPECIFIC TUMOUR NECROSIS FACTOR-RELATED APOPTOSIS-INDUCING LIGAND (TRAIL) VARIANTS” (MEDICAL RESEARCH COUNCIL, priority 2005, published 2009).

Columns and labels:
[1] = target: TRAIL receptor 1 (TRAIL-R1) (Homo sapiens (Human)) (UniProt O00220)
[2] = target: TRAIL receptor 1 (TRAIL-R1) (Homo sapiens (Human)) (UniProt O00220); remark: listed apart in the source

| apoptosis of primary MCL cells after depsipeptide (5 nM, 16 h) [1] | % PS+ cells (apoptosis by phosphatidylserine externalization), Ramos cells, 4 h, 500 ng/ml [2] | apoptosis of primary MCL cells without depsipeptide [1] | Substance |
| --- | --- | --- | --- |
| 68.2% | – | – | HGS-ETR1 (antibody) |
| – | 41.8 % PS+ cells | 25.5% | His-TRAIL (wild type, residues 95-281) (from UniProt P50591) (ligand) |
